# Test results as given in patent US20140072577A1 (AstraZeneca / MedImmune, published 2014).
# B1: LC10 YTE (antibody corresponding to mAb LC10 containing an Fc variant (antibody, V domains shown)
# VH: EVQLVESGGGLVQPGGSLRLSCAASGFTFSSHDMHWVRQATGKGLEWVSGIGTAGDTYYPDSVKGRFTISRENAKNSLYLQMNSLRAGDTAVYYCARDRYSPTGHYYGMDVWGQGTTVTVSS
# VL: DIQMTQSPSTLSASVGDRVTITCRASQSISSWLAWYQQKPGKAPKLLIYKASSLESGVPSRFSGSGSGTEFTLTISSLQPDDFATYYCKQYADYWTFGQGTKVEIKR
# notes: also called LC10-IgG1-YTE; MEDI4893
# Target: T1, BSA (bovine, UniProt P02769)
# T1 construct: also called bovine serum albumin
# T1 sequence (P02769 25-607 limits assumed): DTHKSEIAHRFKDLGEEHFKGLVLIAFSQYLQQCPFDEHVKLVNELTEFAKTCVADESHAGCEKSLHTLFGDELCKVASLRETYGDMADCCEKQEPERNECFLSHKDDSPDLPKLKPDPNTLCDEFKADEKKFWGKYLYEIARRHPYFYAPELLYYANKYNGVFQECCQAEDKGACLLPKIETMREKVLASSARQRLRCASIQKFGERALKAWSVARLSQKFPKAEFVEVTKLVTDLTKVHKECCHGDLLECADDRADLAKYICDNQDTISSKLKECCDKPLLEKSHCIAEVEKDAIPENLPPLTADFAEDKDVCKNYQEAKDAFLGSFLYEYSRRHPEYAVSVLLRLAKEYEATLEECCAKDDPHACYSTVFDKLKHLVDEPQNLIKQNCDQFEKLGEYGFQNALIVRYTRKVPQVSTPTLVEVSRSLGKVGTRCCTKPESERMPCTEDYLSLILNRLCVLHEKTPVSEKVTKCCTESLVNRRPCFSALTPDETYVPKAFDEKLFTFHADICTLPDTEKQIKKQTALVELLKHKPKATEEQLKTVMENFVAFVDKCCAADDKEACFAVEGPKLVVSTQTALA
# Assay: ELISA, BSA as control antigen; detection with anti-human IgG HRP
binder,measurement,value
B1,binding result,no binding
